Starred links: 1 amine or outer side, 2 acyl side, 3 side chain; linkers in the order of their positions; H or OH if unused. Non-standard residues stand in square brackets, D forms with d. Groups on a side chain read outwards from the residue. No end group written: not given here. *: point of attachment. C20 diacid = O=C(O)CCCCCCCCCCCCCCCCCCC(=O)*; γGlu = O=C(O)[C@H](CCC(=O)[*:2])N[*:1]; αMeF = C[C@](N)(Cc1ccccc1)C(=O)O; AEEA = NCCOCCOCC(=O)O; Aib = CC(C)(N)C(=O)O
B1: Peptide 234 (peptide)
peptide: H[Aib]HGS[αMeF]TSDVSK[αMeF]LDSRAAK([AEEA-AEEA-γGlu-γGlu-C20 diacid])D[αMeF]VE[Aib]IANT-NH2
modifications: N-terminus assumed
SMILES: CC[C@H](C)[C@H](NC(=O)C(C)(C)NC(=O)[C@H](CCC(=O)O)NC(=O)[C@@H](NC(=O)[C@](C)(Cc1ccccc1)NC(=O)[C@H](CC(=O)O)NC(=O)[C@H](CCCCNC(=O)COCCOCCNC(=O)COCCOCCNC(=O)CC[C@H](NC(=O)CC[C@H](NC(=O)CCCCCCCCCCCCCCCCCCC(=O)O)C(=O)O)C(=O)O)NC(=O)[C@H](C)NC(=O)[C@H](C)NC(=O)[C@H](CCCNC(=N)N)NC(=O)[C@H](CO)NC(=O)[C@H](CC(=O)O)NC(=O)[C@H](CC(C)C)NC(=O)[C@](C)(Cc1ccccc1)NC(=O)[C@H](CCCCN)NC(=O)[C@H](CO)NC(=O)[C@@H](NC(=O)[C@H](CC(=O)O)NC(=O)[C@H](CO)NC(=O)[C@@H](NC(=O)[C@](C)(Cc1ccccc1)NC(=O)[C@H](CO)NC(=O)CNC(=O)[C@H](Cc1c[nH]cn1)NC(=O)C(C)(C)NC(=O)[C@@H](N)Cc1c[nH]cn1)[C@@H](C)O)C(C)C)C(C)C)C(=O)N[C@@H](C)C(=O)N[C@@H](CC(N)=O)C(=O)N[C@H](C(N)=O)[C@@H](C)O
B2: Peptide 244 (peptide)
peptide: H[Aib]HGS[αMeF]TSDVSK[αMeF]LDSRAAK([AEEA-AEEA-γGlu-γGlu-C20 diacid])D[αMeF]VQSIANT-NH2
modifications: N-terminus assumed
SMILES: CC[C@H](C)[C@H](NC(=O)[C@H](CO)NC(=O)[C@H](CCC(N)=O)NC(=O)[C@@H](NC(=O)[C@](C)(Cc1ccccc1)NC(=O)[C@H](CC(=O)O)NC(=O)[C@H](CCCCNC(=O)COCCOCCNC(=O)COCCOCCNC(=O)CC[C@H](NC(=O)CC[C@H](NC(=O)CCCCCCCCCCCCCCCCCCC(=O)O)C(=O)O)C(=O)O)NC(=O)[C@H](C)NC(=O)[C@H](C)NC(=O)[C@H](CCCNC(=N)N)NC(=O)[C@H](CO)NC(=O)[C@H](CC(=O)O)NC(=O)[C@H](CC(C)C)NC(=O)[C@](C)(Cc1ccccc1)NC(=O)[C@H](CCCCN)NC(=O)[C@H](CO)NC(=O)[C@@H](NC(=O)[C@H](CC(=O)O)NC(=O)[C@H](CO)NC(=O)[C@@H](NC(=O)[C@](C)(Cc1ccccc1)NC(=O)[C@H](CO)NC(=O)CNC(=O)[C@H](Cc1c[nH]cn1)NC(=O)C(C)(C)NC(=O)[C@@H](N)Cc1c[nH]cn1)[C@@H](C)O)C(C)C)C(C)C)C(=O)N[C@@H](C)C(=O)N[C@@H](CC(N)=O)C(=O)N[C@H](C(N)=O)[C@@H](C)O

The binders below were run against human GLP-1 receptor (human, UniProt P43220) (assay: cell-based or functional assay).
For H[Aib]HGS[αMeF]TSDVSK[αMeF]LDSRAAKD[αMeF]VQ[Aib]IANT-NH2 (not fully specified (residue 20)) [Peptide 230], the “hGLP-1R EC50 (pM)” value was 170 pM.
In the case of B1, the “hGLP-1R EC50 (pM)” value is reported as 68 pM.
B2 was tested, and the “hGLP-1R EC50 (pM)” value was 143 pM.
In the case of H[Aib]HGS[αMeF]TSDVSK[αMeF]LDSRAAKD[αMeF]VQ[Aib]IANT-NH2 (not fully specified (residue 20)) [Peptide 232], the “hGLP-1R EC50 (pM)” value is reported as 110 pM.

The binders below were run against human glucagon receptor (human, UniProt P47871) (assay: cell-based or functional assay).
With H[Aib]HGS[αMeF]TSDVSK[αMeF]LDSRAAKD[αMeF]VQ[Aib]IANT-NH2 (not fully specified (residue 20)) [Peptide 230] the “hGluc-R EC50 (pM)” value was 37.1 pM.
For B1, the “hGluc-R EC50 (pM)” value was 1290 pM.
With B2 the “hGluc-R EC50 (pM)” value was 420 pM.
For H[Aib]HGS[αMeF]TSDVSK[αMeF]LDSRAAKD[αMeF]VQ[Aib]IANT-NH2 (not fully specified (residue 20)) [Peptide 232], the “hGluc-R EC50 (pM)” value was 1020 pM.

— US12630600B2 (MEDIMMUNE LIMITED, priority 2022, dated 2026)
